Test [1] deals with T1, Ki-67 antigen (MKI67: Marker Of Proliferation Ki-67) (human, UniProt P46013 1-3256).
T1 construct: Formalin-crosslinked and possibly partly cleaved; also called K-67
Kind of test: flow cytometry, formalin-fixed T47D cells, thrombin treatment done; share of nuclei above the 95 percentile of the isotype control.

In test [2] the target is T1, Ki-67 antigen (MKI67: Marker Of …). The test is described as follows: flow cytometry, formalin-fixed SKBr3 cells, thrombin treatment done; share of nuclei above the 95 percentile of the isotype control.
Test [3] has the same target. Kind of test: flow cytometry, formalin-fixed T47D cells, thrombin treatment not done; share of nuclei above the 95 percentile of the isotype control.
Test [4] has the same target. Kind of test: flow cytometry, formalin-fixed SKBr3 cells, thrombin treatment not done; share of nuclei above the 95 percentile of the isotype control.
The target is the same in test [5]. Kind of test: flow cytometry, formalin-fixed MDA-MB-231 cells, thrombin treatment done; share of nuclei above the 95 percentile of the isotype control.
For test [6] the target is unchanged. The test is described as follows: flow cytometry, formalin-fixed MDA-MB-231 cells, thrombin treatment not done; share of nuclei above the 95 percentile of the isotype control.

Among the data in US20200408770A1 (NITTO BOSEKI, published 2020) are Ki-67-positive ratio values, retold here.

T1 sequence (P46013 whole entry): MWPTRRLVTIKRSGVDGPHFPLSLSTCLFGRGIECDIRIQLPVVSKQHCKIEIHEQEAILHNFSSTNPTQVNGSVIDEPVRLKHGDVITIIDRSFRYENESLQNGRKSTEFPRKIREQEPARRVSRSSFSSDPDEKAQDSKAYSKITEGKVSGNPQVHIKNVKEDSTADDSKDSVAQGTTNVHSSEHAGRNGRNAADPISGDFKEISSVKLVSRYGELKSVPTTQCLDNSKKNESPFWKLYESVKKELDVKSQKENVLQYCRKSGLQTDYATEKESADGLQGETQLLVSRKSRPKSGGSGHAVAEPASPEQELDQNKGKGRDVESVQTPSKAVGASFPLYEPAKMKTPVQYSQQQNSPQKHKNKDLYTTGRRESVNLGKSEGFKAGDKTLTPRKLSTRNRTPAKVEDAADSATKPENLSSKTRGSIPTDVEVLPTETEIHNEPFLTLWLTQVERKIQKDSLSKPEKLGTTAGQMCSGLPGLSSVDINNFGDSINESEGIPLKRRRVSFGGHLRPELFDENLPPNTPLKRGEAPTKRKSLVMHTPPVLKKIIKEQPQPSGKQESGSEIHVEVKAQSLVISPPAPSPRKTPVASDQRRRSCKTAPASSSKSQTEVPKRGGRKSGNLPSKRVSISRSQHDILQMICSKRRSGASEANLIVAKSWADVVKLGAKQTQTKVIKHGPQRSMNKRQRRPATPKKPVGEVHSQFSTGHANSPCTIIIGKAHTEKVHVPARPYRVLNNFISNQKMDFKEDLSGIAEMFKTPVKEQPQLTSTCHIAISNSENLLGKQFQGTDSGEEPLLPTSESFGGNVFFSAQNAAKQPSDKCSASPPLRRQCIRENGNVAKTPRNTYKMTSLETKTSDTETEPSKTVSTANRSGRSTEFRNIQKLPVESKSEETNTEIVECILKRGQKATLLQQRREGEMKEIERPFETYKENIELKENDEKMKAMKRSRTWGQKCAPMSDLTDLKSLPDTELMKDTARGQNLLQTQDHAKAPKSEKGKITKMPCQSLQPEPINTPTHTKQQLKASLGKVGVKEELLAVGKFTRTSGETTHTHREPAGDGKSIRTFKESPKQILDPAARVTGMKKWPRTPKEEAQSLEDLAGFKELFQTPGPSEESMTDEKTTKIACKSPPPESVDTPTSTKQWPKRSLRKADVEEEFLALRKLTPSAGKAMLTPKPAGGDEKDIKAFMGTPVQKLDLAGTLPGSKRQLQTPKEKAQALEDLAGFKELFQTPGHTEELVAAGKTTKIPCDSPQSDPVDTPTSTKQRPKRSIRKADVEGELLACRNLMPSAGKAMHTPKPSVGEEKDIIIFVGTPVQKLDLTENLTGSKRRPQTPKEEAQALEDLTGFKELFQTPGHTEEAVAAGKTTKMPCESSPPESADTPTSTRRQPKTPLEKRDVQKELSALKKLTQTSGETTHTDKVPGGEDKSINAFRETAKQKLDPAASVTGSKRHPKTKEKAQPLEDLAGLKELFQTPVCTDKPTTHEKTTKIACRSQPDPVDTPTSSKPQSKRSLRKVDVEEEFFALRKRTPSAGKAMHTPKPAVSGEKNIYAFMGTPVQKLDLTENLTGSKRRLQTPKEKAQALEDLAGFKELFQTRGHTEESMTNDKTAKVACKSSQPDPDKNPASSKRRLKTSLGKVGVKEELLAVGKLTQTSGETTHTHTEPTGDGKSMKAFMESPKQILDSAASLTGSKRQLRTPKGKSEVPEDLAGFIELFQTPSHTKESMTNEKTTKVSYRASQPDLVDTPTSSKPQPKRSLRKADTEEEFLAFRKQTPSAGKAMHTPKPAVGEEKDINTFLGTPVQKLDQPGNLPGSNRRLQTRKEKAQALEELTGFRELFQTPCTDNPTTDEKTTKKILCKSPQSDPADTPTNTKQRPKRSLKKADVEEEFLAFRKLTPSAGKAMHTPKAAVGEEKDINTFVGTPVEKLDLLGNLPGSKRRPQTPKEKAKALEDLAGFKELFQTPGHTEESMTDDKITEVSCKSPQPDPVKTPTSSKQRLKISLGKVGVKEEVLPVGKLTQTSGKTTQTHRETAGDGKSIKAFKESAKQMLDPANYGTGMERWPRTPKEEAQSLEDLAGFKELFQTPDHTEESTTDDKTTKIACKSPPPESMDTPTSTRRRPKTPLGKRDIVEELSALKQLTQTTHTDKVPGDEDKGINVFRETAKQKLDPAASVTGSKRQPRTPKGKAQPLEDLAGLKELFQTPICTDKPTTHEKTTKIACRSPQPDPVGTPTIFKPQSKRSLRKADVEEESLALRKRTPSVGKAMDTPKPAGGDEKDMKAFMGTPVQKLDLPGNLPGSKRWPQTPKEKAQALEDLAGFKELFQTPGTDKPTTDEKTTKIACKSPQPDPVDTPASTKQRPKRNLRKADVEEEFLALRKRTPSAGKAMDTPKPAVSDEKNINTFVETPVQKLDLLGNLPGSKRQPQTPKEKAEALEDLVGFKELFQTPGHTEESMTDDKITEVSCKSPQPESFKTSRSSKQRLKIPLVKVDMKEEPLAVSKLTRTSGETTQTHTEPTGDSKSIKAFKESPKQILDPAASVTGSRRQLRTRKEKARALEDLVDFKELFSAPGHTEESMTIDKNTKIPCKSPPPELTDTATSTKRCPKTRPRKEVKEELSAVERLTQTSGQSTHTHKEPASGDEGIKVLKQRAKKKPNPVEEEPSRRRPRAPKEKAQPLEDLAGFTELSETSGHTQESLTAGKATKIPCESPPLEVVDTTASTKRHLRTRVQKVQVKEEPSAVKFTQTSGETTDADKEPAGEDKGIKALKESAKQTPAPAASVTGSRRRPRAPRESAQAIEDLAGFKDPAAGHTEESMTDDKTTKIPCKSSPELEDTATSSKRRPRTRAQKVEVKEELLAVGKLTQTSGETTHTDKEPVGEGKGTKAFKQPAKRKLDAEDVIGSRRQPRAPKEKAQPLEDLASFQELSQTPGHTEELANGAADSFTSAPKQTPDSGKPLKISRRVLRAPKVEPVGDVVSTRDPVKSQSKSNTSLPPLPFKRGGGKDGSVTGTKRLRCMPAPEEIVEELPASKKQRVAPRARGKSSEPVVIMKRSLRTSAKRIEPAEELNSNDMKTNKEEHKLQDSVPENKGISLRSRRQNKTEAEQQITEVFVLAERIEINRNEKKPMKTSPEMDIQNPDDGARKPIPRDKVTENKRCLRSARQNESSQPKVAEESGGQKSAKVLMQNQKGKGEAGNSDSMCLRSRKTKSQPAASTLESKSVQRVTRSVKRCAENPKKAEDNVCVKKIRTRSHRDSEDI

B1: Ki-67 antibody (Dako, clone: MIB-1, mouse monoclonal antibody) (antibody, V domains shown)
VH: EVQLQESGPGILQPSQTLSLTCSFSSYHFGDIVGWIRQPSGKGLEWLAHNWKDINDNKYNTALKSRLTISKDTSNNQVFLKIASVDTADTATYYCASYGHYDHWGQGSTLTVSS
VL: DIVMTQSPLSLPVSLGDQASISCRSSSQSVINGQSNYLEWYLQKPGQSPKLLIYLVSNRFSGVPDRFSGSGSGTDFTLKISRVEAEDLGVYYCFQSGVHWPTFGGGTKL
Take B1: the Ki-67-positive ratio in test [1] stood at 37.3; in test [2], 19.8; in test [3], 24.3; in test [4], 6.52; in test [5], 39.9; in test [6], 33.1.
